# Marks after values point to notes of the source that are not given here.
# Experiments:
# [1] = previously reported value, cited from earlier work
# [2] = Fluorescence activation / brightness with DFHBI; type: biochemical; conditions: for Fluorescence brightness, 100 nM DFHBI / Fluorescence brightness, 10 μM DFHBI: normalized 0 to 1 across all three chromophores, average ± SD of two protein concentrations; for Increase in fluorescence of the phenolate form of DFHBI: pH 7.36, versus mFAP2.2; for Activation of DFHBI fluorescence: monomeric designs
# Experimental: (§1) Fluorescence binding assay. Protein-activated DFHBI fluorescence signals were measured in 96-well plate format (Corning 3650) on a Synergy neo2 plate reader (BioTek, Inc) with λex=450 nm or 460 nm and λem=500 nm or 510 nm. Binding reactions were performed at […] in PBS pH7.4 buffer. Protein concentrations were determined by 280 nm absorbance as described above. DFHBI (Lucerna, Inc) were resuspended in DMSO as instructed to make 100 mM stock and diluted in PBS to 0.5-10 μM. Approximate emission spectra were recorded for active designs from 490 to 600 nm.
# (§2) Table 3A-C. Brightness and chromophore affinities of selected mFAP variants. Fluorescence brightness measurements at 10 μM (top table) and 100 nM (middle table) chromophore concentrations were normalized from 0 to 1 across all three chromophores (DFHBI, DFHBI-1T, and DFHO), and the normalized values for two protein concentrations tested for each chromophore at each chromophore concentration were averaged and standard deviations of the average computed. Reported values are the normalized averages and standard deviations of the means for each chromophore concentration and each chromophore. Reported relative densitometry values are the relative densitometry values normalized from 0 to 1 and represent how well each design expresses relative to one another in Lemo21(DE3) E. coli cultures. Thermodynamic dissociation constants (bottom table) are obtained by non-linear least squares fitting of chromophore titrations (n=1) to a single binding site isotherm, and values reported with the standard deviation of the fit. Where the obtained Kd values are below the protein concentration tested, the Kd and standard deviation of the fit are reported in parentheses. Values with “N/D” were not determined.
# [3] = Chromophore titration, fit to single binding site isotherm: DFHBI; conditions: ± SD of the fit
# Experimental: as §1, §2
# [4] = Chromophore titration, fit to single binding site isotherm: DFHBI-1T; conditions: n=1 titration; ± SD of the fit; Table 3C
# Experimental: as §2
# [5] = Chromophore titration, fit to single binding site isotherm: DFHO; conditions: n=1 titration; ± SD of the fit; Table 3C
# Experimental: as §2
# [6] = Fluorescence brightness with DFHBI-1T; type: biochemical; conditions: normalized 0 to 1 across all three chromophores; average ± SD of two protein concentrations
# Experimental: as §2
# [7] = Fluorescence brightness with DFHO; type: biochemical; conditions: normalized 0 to 1 across all three chromophores; average ± SD of two protein concentrations
# Experimental: as §2
# [8] = Circular dichroism, thermal and GuHCl denaturation; type: physicochemical; conditions: CD
# Experimental: Circular dichroism (CD). Purified protein samples were prepared at 0.5 mg/ml in 20 mM Tris buffer (150 mM NaCl, pH8.0) or PBS buffer (25 mM phosphate, 150 mM NaCl, pH7.4). Wavelength scans from 195 nm to 260 nm were recorded at 25 degrees Celsius, 75 degrees Celsius, 95 degrees Celsius and cooling back to 25 degrees Celsius. Thermal denaturation was monitored at 220 nm or 226 nm from 25 degrees Celsius to 95 degrees Celsius. Near-UV wavelength scan from 240 nm to 320 nm and tryptophan fluorescence emission were recorded in the absence and presence of 5M guanidinium chloride (GuHCl). Chemical denaturation in GuHCl was monitored by both tryptophan fluorescence and near-UV CD signal at 285 nm. The concentration of the GuHCl stock solution was measured with a refractometer (Spectronic Instruments, Inc). Far-UV CD experiments were performed on an AVIV model 420 CD spectrometer (Aviv Biomedical, Inc). Near-UV CD and tryptophan fluorescence experiments were performed on a Jasco J-1500 CD spectrometer (Jasco, Inc). Protein concentrations were determined by 280 nm absorbance with a NanoDrop™spectrophotometer (ThermoScientific, Inc). Melting temperatures were estimated by smoothing the sparse data with a Savitsky-Golay filter of order 3 and approximating the smoothed data with a cubic spline to compute derivatives. Reported Tm values are the inflection points of the melting curves.
# [9] = Photophysical characterization (absorbance, excitation, emission, extinction coefficient, quantum yield); type: physicochemical
# [10] = n=1 titration, Table 3C, read-out: DFHBI Kd
Molecule,"Kd [3, 10] [µM]",Kd [4] [µM],Kd [5] [µM],"Fluorescence brightness, 100 nM DFHBI [2]","Fluorescence brightness, 10 μM DFHBI [2]","Fluorescence brightness, 100 nM DFHBI-1T [6]","Fluorescence brightness, 10 μM DFHBI-1T [6]","Fluorescence brightness, 100 nM DFHO [7]","Fluorescence brightness, 10 μM DFHO [7]",further results
CC1=N/C(=C\c2cc(F)c(O)c(F)c2)C(=O)N1CC(F)(F)F [DFHBI-1T],–,–,–,–,–,–,–,–,–,"Extinction Coefficient ([1]; Table 4): 35,400^† M^−1 · cm^−1; λabs ([1]; Table 4): 422^† nm; λem ([1]; Table 4): 495^† nm; λex ([1]; Table 4): 426^† nm; Reported Quantum Yield [1]: 0.00098^†"
"b11L5F.2: SEQ ID NO:27; second round design from b11L5F.1 (protein, (1)..(1) optionally absent) MNRAAQLLPGTWQVTMTNEDGQTSQGQMHFQPRSPYTLDIVAQGTISDGRPISGYGKVTVKTPDTMHVNITYPSLGNIKVQGQITLDSPTQFTWNSTTSDGKKLTGTLQRQE",–,–,–,–,–,–,–,–,–,"Increase of fluorescence, second round of design ([2]; versus b11L5F.1): approximately 1.4 fold"
"b11L5F: SEQ ID NO:25; b11 with a 5-residue fifth turn (protein, (1)..(1) optionally absent) MCRAASLLPGTWQVTMTNEDGQTSQGQMHFQPRSPYTLDVKAQGTISDGRPISGKGKVTCKTPDTMDVDITYPSLGNMKVQGQVTLDSPTQFKFDVTTSDGSKVTGTLQRQE",–,–,–,–,–,–,–,–,–,"Fluorescence activity in comparison with b11 ([2]; 100 μM protein+10 μM DFHBI): 5.2 fold; Increase of fluorescence intensity ([2]; fifth turn changed to a five-residue turn, versus b11): fourfold"
"b11L5F.1: SEQ ID NO:26; b11L5F triple mutant 83I_95A_103L without disulfide (protein, (1)..(1) optionally absent) MSRAASLLPGTWQVTMTNEDGQTSQGQMHFQPRSPYTLDVVAQGTISDGRPISGYGKVTVKTPDTMDVDITYPSLGNMKVQGQITLDSPTQFKFDATTSDGSKLTGTLQRQE",–,–,–,–,–,–,–,–,–,"Higher DFHBI fluorescence ([2]; substitutions at V103, V95, V83 of b11L5F): tenfold"
"mFAP2.3: SEQ ID NO:58 (protein, (1)..(1) optionally absent) MSRAAQLLPGTWQVTMTNEDGQTSQGQMHFQPRSPYTMDVVAQGTISDGRPIVGYGKVTVKTPDTLDVDITYPSLGNIKAQGQITMDSPTQFKFDATTKGENDFHGRLTGTLQRQE",< 0.5,1.58 ± 0.34,10.4 ± 3.59,0.15 ± 0.0,0.2 ± 0.03,0.52 ± 0.02,0.67 ± 0.04,0.02 ± 0.0,0.01 ± 0.0,"Kd ([3]; obtained Kd below the protein concentration tested, read-out: DFHBI Kd, fit value in parentheses): 0.146 µM; Increase in fluorescence of the phenolate form of DFHBI [2]: ~1.1 fold"
"mFAP2.4: SEQ ID NO:59 (protein, (1)..(1) optionally absent) MSRAAQLLPGTWQVTMTNEDGQTSQGQMHFQPRSPYTMDIVAQGTISDGRPIVGYGKATVKTPDTLDVDITYPSLGNIKAQGQITMDSPTQFKFDATTKGAGNFTGRLTGTLQRQE",1.31 ± 0.1,38.7 ± 5.71,32.7 ± 14.2,0.69 ± 0.03,0.69 ± 0.06,0.01 ± 0.0,0.01 ± 0.0,0.01 ± 0.0,0.0 ± 0.0,Increase in fluorescence of the phenolate form of DFHBI [2]: ~3.4 fold
"mFAP2.5: SEQ ID NO:60; mutations of mFAP2.3 and mFAP2.4 combined (protein, (1)..(1) optionally absent) MSRAAQLLPGTWQVTMTNEDGQTSQGQWHFQPRSPYTMDIVAQGTISDGRPIVGYGKATVKTPDTLDVDITYPSLGNIKAQGQITMDSPTQFKWDATTKGENDFHGRLTGTLQRQE",1.13 ± 0.09,52.5 ± 7.48,34.2 ± 13.7,0.83 ± 0.02,0.8 ± 0.03,0.01 ± 0.0,0.01 ± 0.0,0.01 ± 0.0,0.0 ± 0.0,–
"b32: SEQ ID NO:12; monomeric design, activates DFHBI fluorescence (protein, (1)..(1) optionally absent) MGQEVAQVLPGDWQVHMTNEDGQTSTGTVTFQPRSPYTFDVKFKGTMSDGRPITGKGKMTMKTPDTMDIDVTYSDGKKVTGKVTMKSPTQLDWDLTTSDGSKVTGTSHRQE",–,–,–,–,–,–,–,–,–,Thermal stability [8]: undergo reversible thermal melting transitions; Absorption peak with DFHBI bound [9]: 450 nm; Emission peak with DFHBI bound [9]: 510 nm; Activation of DFHBI fluorescence [2]: found to activate DFHBI fluorescence
"b11: SEQ ID NO:4; monomeric design with disulfide bond, activates DFHBI fluorescence (protein, (1)..(1) optionally absent) MCRAASLLPGTWQVTMTNEDGQTSQGQMHFQPRSPYTLDVKAQGTMSDGRPIQGKGKVTCKTPDTMDVDITYSDGKQVQGQVTLDSPTQFKFDVTTSDGSKVTGTLQRQE",–,–,–,–,–,–,–,–,–,Thermal stability [8]: undergo reversible thermal melting transitions; Absorption peak with DFHBI bound [9]: 450 nm; Emission peak with DFHBI bound [9]: 510 nm; Activation of DFHBI fluorescence [2]: found to activate DFHBI fluorescence
